From the DeepSol protein solubility set

experiment: soluble on expression in E. coli; label from the status in PepcDB or PDB records

Sequence | soluble on expression in E. coli
MGSDKIHHHHHHMKEILLKAENVRAYYKLEKVSVKAVDGLSFEILEDEVIGVVGESGCGKTTLSNVIFMNMVKPLTLVDGKIFLRVNGEFVELSSMTRDEVKRKFWGKEITIIPQAAMNALMPTIRMEKYVRHLAESHGIDEEELLDKARRRFEEVGLDPLWIKRYPFELSGGMRQRAVIAIATILNPSLLIADEPTSALDVVNQKVLLKVLMQMKRQGIVKSIIFITHDIATVRQIADRMIIMYAGKIVEFAPVESLLEKPLHPYTQGLFNSVLTPEPEVKKRGITTIPGAPPNLINPPSGCRFHPRCPHAMDVCKEKEPPLTEIEPGRRVACWLYMEERA | not soluble
VKIRLHTLLAVLTAAPLLLAAAGCGSKPPSGSPETGAGAGTVATTPASSPVTLAETGSTLLYPLFNLWGPAFHERYPNVTITAQGTGSGAGIAQAAAGTVNIGASDAYLSEGDMAAHKGLMNIALAISAQQVNYNLPGVSEHLKLNGKVLAAMYQGTIKTWDDPQIAALNPGVNLPGTAVVPLHRSDGSGDTFLFTQYLSKQDPEGWGKSPGFGTTVDFPAVPGALGENGNGGMVTGCAETPGCVAYIGISFLDQASQRGLGEAQLGNSSGNFLLPDAQSIQAAAAGFASKTPANQAISMIDGPAPDGYPIINYEYAIVNNRQKDAATAQTLQAFLHWAITDGNKASFLDQVHFQPLPPAVVKLSDALIATISS | soluble
MGSDKIHHHHHHMNQDLLHKYFKGETSVDEEKRILNWVDESEENRKTLQKERMLFDIALFTDSKRKMREKAGAGARIIPMLRWSARIAAAVIVAVSCGFLINEYQYDKLAQLQTVTVPAGQRAQITLADGTKVWLNSESTLSYRSDFGRRDRDVELDGEAYFEVAKNKEIPFYVNTETNQVRVVGTHFNVCAYKGSNEFETTLVEGIVDIYAYDNERPLTRLTKNEFFGSYQGKYKKAVLPSYDYLRWREGLYCFDDSPFSCILTKLEKYYNVKITVENPKVLNYRCTGKFKEQDGVEHILKVIQKDHPFTYSISEEGDSIRIE | not soluble
TRNVTWNIGFNATHYRNKISRLAESKKTDIIDGHAGYVNGLYYYGEGLPMYTNYVQKYAGVSEEGKPQWYYTDKQTGEMKTTTTYSQADLYLCGDAVPDLYGGINTSLSFYGFDFSTQINYSIGGQAYDYGYQALMSPPTSTHLGYNVHKDIYKAWSPENTQSDIPQWQFNDLYSVKTSDRFLTNASSISIQNIQLGYTFSKKTLRSLYLTNLRIYVACDNVYYWSKRKGFDSRVTWNGNKDSSGEYSAVRAFSAGLSLQF | not soluble
MSLAILPPDSLETALSQAQQATQAALQAGKNRLQIEILLPDLNPMGLAAGYLPLFAELGSDLKVFFADAGSAALARREWGETAYSVRGVNERLTPIEASDRAIVIVAPTPVEVTAIEQMCLTAGDRPFIMLNPRLQDVAVVGIGYAGRQLRERFLNTLEPCYYLRPLAETVILWRCYPQAWQIWQYRETAPTCLAEFEQRPTSEDIERALSALGKPRAQSFLSRLSALLRALQSEGHHHHHH | soluble
MGSDKIHHHHHHMSIKTFELISTTENGIQLISYVALPEAASDDNPVAGILVAPEWWGVVEHPKNVTERLAKAGYAAVAMDVYGEGKLTSDAAQANMWMEQVLADQDMLMARCRLILNDFSDQLAVDSDNLGAIGYCFGGKIVLDMAREGMPLKAVATFHGNPSPKQPADKQFSAKVLVAHGRDDSMVSMDAIEGLKAELDGADIDYTIDVYDGAKHGFTNPNADERAAKNGVDLGYNETAAKQSWDNMLEFMKDNLA | not soluble
MTVISSHWWRCISLNSKSNRCSSSSGNHLMMGGKKTCVLMRATFMVIATDYEFERRWCRRTGTIAGCHLISKQAEVGEMMCMIEL | not soluble
MSLAQIKSLFATRLYHAPLSEHGPALDPAEFAASCYSIAEDDDAGQEWCEREGYPGYTSYASLTDLPWRFPIFADLVKSLDAHVAAFAEDLEFELDGKALRLEDIWINILPEGGVHGSHIHPHSVISGTTYVAMPEGTSALKLEDPRLPFMMAAPTRRKGAREELRTFRSVAPKVGDVLLWESWLRHEVPMNMAEEDRISVSFNYAWGEGHHHHHH | soluble
MEERDSETGWRGSREGWLQAAYEALIEGGVESVKIMTLAARLKLSRTSFYWFFKDRADVLDALRSQWAGTTTAPLVAASAEYAESRAEAMLNVLACFLSGRFDARFEFAARSWGLQDPAMAAAVEAADAERLAALTDMLARWGHDPQEADVRARTVYLVQIGYISMRAEETLETRLARIPNYVEIYTGVRPEPREMARFRARLGLAV | not soluble
MGSDKIHHHHHHMKHIAVIGAGLGGLSAAISLASKGFKVTVIERNEHIGGKMMPITSEGHRFDFGPNTITMPEIFQSVILESGADPDDYFTFEKLTRHTVNHFPDGRSLTFASGREAMRTEVDRFTKGQLAKNDITGYQDEVRELYNIAKQQFFINIDSYFNFSLLRDMTKVHPFKTLHGLHKKYFKDPQLIQALDRYATYIGSSPFQAPATFGLIAHLELNDGVYFTRGGNTAIAEGFARRARELGVTFRLGDEVTQIEVTNQLATEIELNHVDYLSVDFIVLNGDLLTQYPRLISETVRPDFKNPTPAQMEPSISAYVRCIGLGRRIAGLAHHNVFFSSDYEAEFEALFNQHRYAEEPTIYISNSSVTAPEMGEAGDNLFVLVNAPATHKGSAVDFDTYDKIIDQRLQQFGIDITSDVLFEQRITPQDIEQKFSAYHGSLYGLSSNGTRGAFMRPSNRSKNVHNLFFAGGSTHPGGGSPMVTLSGKLASERIVSAVAATL | not soluble
MKFTVGNGQNQHKGVNDGFSYEIWLDNTGGNGSMTLGSGATFKAEWNAAVNRGNFLARRGLDFGSQKKATDYDYIGLDYAATYKQTASASGNSRLCVYGWFQNRGLNGVPLVEYYIIEDWVDWVPDAQGKMVTIDGAQYKIFQMDHTGPTINGGSETFKQYFSVRQQKRTSGHITVSDHFKEWAKQGWGIGNLYEVALNAEGWQSSGVADVTLLDVYTTPKGSSPALEHHHHHH | soluble
MGSDKIHHHHHHMSIKILQPGLFSTVQDLGRKGYEHIGFSGAGAMDQFSFKVAQLLINNDGPAIEYTLIGPTIQFNTQNTFVITGGSVNASLNNKTISMNSVILAEKGDILKIGAITKGARGYLTFGHSINVPPIAESYATHTRSSIGGFKGRKLLANDVITVKINNDFKENIGKTIHLQDDLLPENNIIHILQGPQFEAFSEEARAKIVNHPYLITEQSDRMGYRLEGDSVAPINQADIISEPVALGSVQVPNDGQPIILLNDKQTIGGYTKIATVCKFDLPKLAQMKPQDTIQFKWISFQEAVDKNREQMSLFNEILKSHQKTPIFDTSSLRHTSKKLATILKGDL | not soluble
MGSDKIHHHHHHMINFSQIQVFITIVESGGFIAAGEKMHRSQPAITNAIKKLESSLGFELFDRKVYRPQLTAKGKAFYQKAREVVAQFMQLENSAETLRSGVETQFSIDLDIALPLPGYAPLIQSFIRQYPETCFSLSNNTFVRCLERLERRECHLCIAASHIRSPQIEYLRMPSIRMIPVASRDYYDQHKERINNPKLGIYCMQIMIAGTQQELYQLKIEPLSHSMPKWLVGDMYIRKQLILSGMGIGRLPDHLVEKELAEGSLVQLNTRDYVAVTMDIYAMRLNNQEHGMVSNYAWQSLKSYAEDTVSPDLK | not soluble
MKERVIITGANGQLGKQLQEELNPEEYDIYPFDKKLLDITNISQVQQVVQEIRPHIIIHCAAYTKVDQAEKERDLAYVINAIGARNVAVASQLVGAKLVYISTDYVFQGDRPEGYDEFHNPAPINIYGASKYAGEQFVKELHNKYFIVRTSWLYGKYGNNFVKTMIRLGKEREEISVVADQIGSPTYVADLNVMINKLIHTSLYGTYHVSNTGSCSWFEFAKKIFSYANMKVNVLPVSTEEFGAAAARPKYSIFQHNMLRLNGFLQMPSWEEGLERFFIETKSH | not soluble
LESLLTLPLAGEARVRILQITDTHLFAQKHEALLGVNTWESYQAVLEAIRPHQHEFDLIVATGDLAQDQSSAAYQHFAEGIASFRAPCVWLPGNHDFQPAMYSALQDAGISPAKRVFIGEQWQILLLDSQVFGVPHGELSEFQLEWLERKLADAPERHTLLLLHHHPLPAGCSWLDQHSLRNAGELDTVLAKFPHVKYLLCGHIHQELDLDWNGRRLLATPSTCVQFKPHCSNFTLDTIAPGWRTLELHADGTLTTEVHRLADTRFQPDTASEGY | soluble
MISDSKLLASAAWDAQSLNELKAKASEDPAANIRPVARQVEGMFVQMMLKSMRDALPKDGLFSSEHTRLYTSMYDQQIAQQMTAGKGLGLAEMMVKQMTPEQPLPEESTPAAPMKFPLETVVRYQNQTLSQLVQKAVPRNYDDSLPGDSRAFLAQLSLPAQLASQQSGVPHHLILAQAALESGWGQRQIRRENGEPSYNLFGVKASGNWKGQVTEITTTEYENGEAKKVKAKFRVYSSYLEALSDYVGLLTRNPRYAAVTTAASAEQGAQVLQDAGYATDPHYARKLTNMIQQMKSISDKVSKTYSMNIDNLF | not soluble
MGSDKIHHHHHHMSYVAVKGGSTAIRAAHRLVRKRMRGDPDAPEITPRQICEQMHLGVDRVMAEASLYDEDLAARAMLQAQGDMIEAIFLLRAYRATLTRFLDSTPLAMDTMRVQRRISAAFKELPGGQQLGQTYDYSHRLFGYFDRLETKSDIESGKTEVPPEPMTSVMDLLEKEGLMELAAACEPPAENMQQDITRHPLLFPATRAQRLQSLARGDEGFLLSMAYSTQRGYGQNHPFIAELRMGDVTVEITPPELGFPIEIGTITVTECQMINQFQARSPEEAAFTRGYGLVFGHSERKAIAMALVDRALRAGELGEEALSPAQNEQFVLSHCDNVETTGFVEHLKLPHYVDFQSEIQTLRHLHKTAAKDGADRV | not soluble
PGYLNDIPRHGMFVKDLILLVNDTAAVAYDPMENECYLTALAEQIPRNHSSIVTQQNQVYVVGGLYVDEENKDQPLQSYFFQLDNVSSEWVGLPPLPSARCLFGLGEVDDKIYVVAGKDLQTEASLDSVLCYDPVAAKWSEVKNLPIKVYGHNVISHNGMIYCLGGKTDDKKCTNRVFIYNPKKGDWKDLAPMKTPRSMFGVAIHKGKIVIAGGVTEDGLSASVEAFDLKTNKWEVMTEFPQERSSISLVSLAGSLYAIGGFAMIQLESKEFAPTEVNDIWKYEDDKKEWAGMLKEIRYASGASCLATRLNLFKLSKL | soluble
MFSLLRKSLKSPAPKKVVPSQRTVSVAGRQVPITVRENPRATRITLRIEPGGRALKLTIPMGLHHRQVDDFLERHQGWLEGKLLKFSPDDGLRPGATIDIRGISHRIEHTGSLRGLTHIAKDADGVAVLKVSGAPEHLRRRIATFLKKEAKADLERLVAIHGRAAGRPVRSISMKDTRSRWGSCSHDGNLSFSWRIVMAPDRVIDYLAAHEVAHLSEMNHGPKFWALCEKLCPHTSEAKDWLKRHGSKLHAIDFDLEHHHHHH | not soluble
MSLGSTTPISIFELVTRLENDSQVANDTKHLFFSGENIGYSEMIGRRPNMEDAIVIRENFREKLHIAAVFDGHSGHSVARSCAASLPDLLRNDETINSDAIKKHLDHINHVLLSSNDLAGSTMQFAIIDMNNNHLTIMQLGDSRSVVYKNDGRVTFYTQEMRPERRSELARLREDRIRLKRLRTGGMLACSTSIGDFQVKGISHEPEVIEMDISDDDRWIVIACDGLWDDVNNESAAKILLDSESPHVAATLLRDLAFQRGSEDNISVIVVDLDLLRNEGHHHHHH | soluble
MNYELIVVGGGPAGLAAAYEAYNNGIKNILILERDKELGGILNQCIHNGFGLHTFKEELTGPEYADRFIEMVKDTNVEVKLNTMVLEITKDKKVYAINSKEGYMELEAKAIILSMGCRERTRGAINIPGDRPAGVFTAGAAQRYINVEGYMPGKEVVILGSGDIGLIMARRMTLEGAKVKAVVELCPYSNGLNRNIVQCLNDYNIPLYLSHTVTDIIGKERLEKVIIAKVDENRRPIKGTEIEFDADTLLLSVGLIPENELSSNAGIELDRRTNGLRVTESMETSIDGIFACGNVVHVHDLVDFVTEESKRTGASAAKYIKGELKKDKYVNIVNGTNVNYTVPQKLNVDDVEDRLTIFMRVNNIYHNKVLVVRSKEEVIAKFKRAHLAPSEMEKVVLGKAFLDKIKSDITISLEDGE | not soluble
